Drawing on paper PMC12258621, this text covers Kd and binding signal for 3 sequences.

Data set [1] concerns the target dSpRY (catalytically inactive SpRY Cas9) (Streptococcus pyogenes) (UniProt Q99ZW2). The data set is described as follows: single-molecule AuRBT (baseline twist shift, Langmuir fit). The note with it: effective Kd for off-target binding on the tether; RNP with sgRNA3; EMSA: 20 mM HEPES pH 7.5, 100 mM KCl, 10 mM MgCl2, 1% glycerol, 0.5 mM DTT (37 C for plasmid EMSA); footprinting: 20 mM Tris pH 7.9, 24 mM KCl, 5 mM MgCl2 …. A general note: In EMSA bound probe runs differently from free probe, usually more slowly.

Data set [2] shares this target. The data set is described as follows: single-molecule AuRBT (hyperbolic fit of kC-I vs [RNP]). As to conditions: EMSA: 20 mM HEPES pH 7.5, 100 mM KCl, 10 mM MgCl2, 1% glycerol, 0.5 mM DTT (37 C for plasmid EMSA); footprinting: 20 mM Tris pH 7.9, 24 mM KCl, 5 mM MgCl2 ….
Data set [3] deals with dCas9 (catalytically inactive SpyCas9) D10A;H840A (Streptococcus pyogenes) (UniProt Q99ZW2). The data set is described as follows: single-molecule AuRBT (kC-I linear, no saturation). As to conditions: initial binding Kd,init; >1 uM proposed from literature; R-loop forms; EMSA: 20 mM HEPES pH 7.5, 100 mM KCl, 10 mM MgCl2, 1% glycerol, 0.5 mM DTT (37 C for plasmid EMSA); footprinting: 20 mM Tris pH 7.9, 24 mM KCl, 5 mM MgCl2 ….

Data set [4] addresses dSpRY (catalytically inactive SpRY Cas9) (Streptococcus pyogenes) (UniProt Q99ZW2). The data set is described as follows: EMSA. The note with it: 40x plasmid competitor; 100 nM RNP, 10 nM DNA; EMSA: 20 mM HEPES pH 7.5, 100 mM KCl, 10 mM MgCl2, 1% glycerol, 0.5 mM DTT (37 C for plasmid EMSA); footprinting: 20 mM Tris pH 7.9, 24 mM KCl, 5 mM MgCl2 ….

In general, Kd refers to the concentration at which binding is half-saturated. With “GGCUGCGUAUUUCUACUCUGUUGUUUUAGAGCUAGAAAUAGCAAGUUAAAAUAAGGCUAGUCCGUUAUCAACUUGAAAAAGUGGCACCGAGUCGGUGCUUCG / GTCATTGTCGCGAAGTGCAGCGAGATCGCGTTTGTACTCCAAACAGAGTAGAAATACGCAGAGCAGCGATTTCTCGTGTGCAGACA / CGAAGCACCGACTCGGTGCCACTTTTTCAAGTTGATAACGGACTAGCCTTATTTTAACTTGCTATTTCTAGCTCTAAAACAACAGAGTAGAAATACGCAGCC [sgRNA3 + Target1 NGG DNA tether]”, the Kd in data set [1] was 15 nM; in data set [2] it was 10 nM; in data set [3], more than 80 nM. “GGGACGCAUAAAGAUGAGACAAGUUUUAGAGCUAGAAAUAGCAAGUUAAAAUAAGGCUAGUCCGUUAUCAACUUGAAAAAGUGGCACCGAGUCGGUGCUUCG / CGCTCATGCTGACGCATAAAGATGAGACAATGGCGATTACAGTACGTGCG / CGCACGTACTGTAATCGCCATTGTCTCATCTTTATGCGTCAGCATGAGCG [sgRNA2 + matched target duplex (0-20 bp)]” showed a binding signal in data set [4] of 2 % bound. Sequence “GGGACGCAUAAAGAUGAGACAAGUUUUAGAGCUAGAAAUAGCAAGUUAAAAUAAGGCUAGUCCGUUAUCAACUUGAAAAAGUGGCACCGAGUCGGUGCUUCG / CGCTCATGCTGACGCATAAAGATGAGAGTTTGGCGATTACAGTACGTGCG / CGCACGTACTGTAATCGCCATTGTCTCATCTTTATGCGTCAGCATGAGCG [sgRNA2 + target duplex with MM bubble next to PAM (3-20 bp)]” gave a binding signal in data set [4] of 29 % bound.
